Experimental data from PMC4484599.

Molecular target: Sp-1 human recombinant protein (Promega) (Homo sapiens, UniProt P08047 1-785)
Assay: EMSA

Sp-1 human recombinant protein (Promega), sequence (P08047 whole entry): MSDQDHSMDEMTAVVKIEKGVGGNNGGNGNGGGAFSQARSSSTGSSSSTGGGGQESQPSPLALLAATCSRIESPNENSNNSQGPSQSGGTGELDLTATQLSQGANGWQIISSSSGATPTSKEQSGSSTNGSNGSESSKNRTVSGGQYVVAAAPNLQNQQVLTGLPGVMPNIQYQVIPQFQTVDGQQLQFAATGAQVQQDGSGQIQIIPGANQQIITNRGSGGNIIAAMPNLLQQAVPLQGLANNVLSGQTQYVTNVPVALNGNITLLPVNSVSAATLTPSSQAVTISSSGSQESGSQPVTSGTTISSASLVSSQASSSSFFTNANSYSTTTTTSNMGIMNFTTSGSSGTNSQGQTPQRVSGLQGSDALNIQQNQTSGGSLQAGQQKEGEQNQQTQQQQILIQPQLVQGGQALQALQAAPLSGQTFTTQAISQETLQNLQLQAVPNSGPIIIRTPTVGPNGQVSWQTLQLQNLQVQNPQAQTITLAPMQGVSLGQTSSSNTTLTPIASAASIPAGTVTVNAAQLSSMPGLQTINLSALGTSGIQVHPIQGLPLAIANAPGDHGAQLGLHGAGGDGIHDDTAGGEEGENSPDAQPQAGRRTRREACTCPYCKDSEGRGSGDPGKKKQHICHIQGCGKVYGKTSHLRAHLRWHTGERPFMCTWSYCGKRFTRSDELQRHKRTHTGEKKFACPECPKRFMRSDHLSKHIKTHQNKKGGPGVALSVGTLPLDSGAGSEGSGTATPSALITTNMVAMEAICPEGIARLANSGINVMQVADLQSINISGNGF

B1: Sp-1 probe (ER alpha promoter) (dsDNA)
DNA 1: TCGTGCGCCCCCGCCCCCTGGCCGTG
DNA 2: CACGGCCAGGGGGCGGGGGCGCACGA
B1: binds.
